According to patent US20180086823A1 (FRAUNHOFER GESELLSCHAFT ZUR FOERDERUNG DER ANGEWANDTEN …, published 2018):
Read-outs that look alike come from different tables or passages of the source.

Experiments:
[1] = biological target: T1, AMA-1 of Plasmodium falciparum strain 3D7, on parasites (schizonts/merozoites) (Plasmodium falciparum (strain 3D7), UniProt P22621 25-622); assay: cell-based or functional assay
T1 chain: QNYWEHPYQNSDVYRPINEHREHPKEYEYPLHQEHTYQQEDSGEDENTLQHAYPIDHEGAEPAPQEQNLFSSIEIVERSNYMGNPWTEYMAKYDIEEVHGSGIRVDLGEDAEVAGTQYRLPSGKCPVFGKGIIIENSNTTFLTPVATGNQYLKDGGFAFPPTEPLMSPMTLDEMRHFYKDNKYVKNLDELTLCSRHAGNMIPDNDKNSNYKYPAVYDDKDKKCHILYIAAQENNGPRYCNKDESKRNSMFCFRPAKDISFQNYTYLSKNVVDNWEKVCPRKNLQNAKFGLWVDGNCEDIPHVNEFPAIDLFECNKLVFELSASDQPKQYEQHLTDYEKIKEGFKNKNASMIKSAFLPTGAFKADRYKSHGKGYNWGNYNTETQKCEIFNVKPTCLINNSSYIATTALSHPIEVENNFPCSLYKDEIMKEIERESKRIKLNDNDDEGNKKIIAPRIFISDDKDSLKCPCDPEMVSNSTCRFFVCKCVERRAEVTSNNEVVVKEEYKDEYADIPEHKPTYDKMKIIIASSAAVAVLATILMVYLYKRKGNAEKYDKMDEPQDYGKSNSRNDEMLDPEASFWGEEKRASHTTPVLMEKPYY

[2] = biological target: AMA-1 of Plasmodium falciparum strain FCR3, on parasites (Plasmodium falciparum (strain FCR3)); assay: cell-based or functional assay
[3] = biological target: AMA-1 of Plasmodium falciparum strain HB3, on parasites (Plasmodium falciparum (strain HB3)); assay: cell-based or functional assay
[4] = biological target: AMA-1 of Plasmodium falciparum strain K1, on parasites (Plasmodium falciparum (strain K1)); assay: cell-based or functional assay
[5] = biological target: T1, AMA-1 of Plasmodium falciparum strain …; assay: cell-based or functional assay
[6] = biological target: T2, recombinant apical membrane antigen 1 (AMA-1) from Plasmodium falciparum 3D7, produced in Pichia pastoris, … (Plasmodium falciparum (strain 3D7), UniProt P22621 25-546); assay: SPR, Biacore T200, protein-A capture of the antibody, 25° C., 1:1 Langmuir fit
T2 construct: also called native target antigen AMA-1; recombinant AMA-1
T2 chain: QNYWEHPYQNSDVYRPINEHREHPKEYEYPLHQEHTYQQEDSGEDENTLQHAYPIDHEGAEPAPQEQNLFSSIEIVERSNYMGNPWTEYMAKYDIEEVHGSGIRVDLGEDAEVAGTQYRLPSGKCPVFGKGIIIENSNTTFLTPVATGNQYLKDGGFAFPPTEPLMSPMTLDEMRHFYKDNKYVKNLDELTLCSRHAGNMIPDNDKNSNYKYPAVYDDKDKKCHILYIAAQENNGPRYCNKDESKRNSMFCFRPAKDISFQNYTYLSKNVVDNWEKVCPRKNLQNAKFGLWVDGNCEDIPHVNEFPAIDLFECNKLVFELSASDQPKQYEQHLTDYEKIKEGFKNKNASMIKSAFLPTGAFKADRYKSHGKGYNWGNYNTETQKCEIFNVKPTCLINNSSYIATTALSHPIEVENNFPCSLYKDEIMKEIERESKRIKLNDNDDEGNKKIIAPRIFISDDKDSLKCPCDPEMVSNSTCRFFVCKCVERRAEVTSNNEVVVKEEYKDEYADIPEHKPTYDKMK
Procedure: All antibodies were diluted into running buffer to yield equivalent capture levels. The injection time was set to 180 s and dissociation was recorded for 600 s. The protein-A surface was regenerated by a 30 s pulse with 30 mM HCI. For the antibody buffer injections were used for double referencing. Values for the KD of the antibody were calculated according to the curve-fitting methodology for a simple binding model (1:1 Langmuir).

B1: huMAb-anti-AMA-1.1 (antibody, V domains shown)
VH: QVQLQESGPGLVKPSETLSLTCSVSGVSVSSTVFYWGWIRQSPGKGLEWIGSIYYSGSTYYNEALKSRLTLSVETSERQFSLRLSSVTAADTAVYYCARGAINFGGYSGPGTFYFDIWGQGTLITVSS
VL: DIQMTQSPSTLSASVGDRVTITCRASQSITTWLAWYQQKPGTAPKLLIYKASILETGVPSRFSGSGSGTDFTLTISSLQPDDFATYYCQQYSTHLFTFGPGTKVDIK
notes: also called recombinant human anti AMA-1 antibody
- IC50 [µg/ml], growth inhibition assay (GIA), strain 3D7 [1]: 32 µg/mL
- IC50 [µg/ml], growth inhibition assay (GIA), strain FCR3 [2]: 230 µg/mL
- IC50 [µg/ml], growth inhibition assay (GIA), strain HB3 [3]: 115 µg/mL
- IC50 [µg/ml], growth inhibition assay (GIA), strain K1 [4]: 113 µg/mL
- IC50 [µg/ml], growth inhibition assay (GIA), strain 3D7 [5]: 32 µg/mL
- Kd [6]: 0.188 nM
- koff [6]: 0.000131 s⁻¹
- kon [6]: 698000 M⁻¹ s⁻¹
